Measurements taken from patent publication US20030166870A1.
Read-outs that look alike come from different tables or passages of the source.

Key:
[1] = target: FLAG-tagged human CCR5 expressed on transfected L1.2 murine pre-B lymphoma cells (human) (UniProt P51681)
[2] = target: human CCR5 (no tag stated) (human) (UniProt P51681); assay: 10 µg/ml mAb; 125I-RANTES binding to activated IL-2 maintained T cells (CD3 blasts); competitor RANTES
[3] = target: human CCR5 (no tag stated) (human) (UniProt P51681); assay: 10 µg/ml mAb; 125I-MIP-1α binding to activated IL-2 maintained T cells (CD3 blasts); competitor MIP-1α
[4] = target: FLAG-tagged human CCR5 expressed on transfected L1.2 murine pre-B lymphoma cells (human) (UniProt P51681); assay: inhibition of 0.1 nM 125I-MIP-1β binding to CCR5 L1.2 transfectants by decreasing amounts of mAb; competitor MIP-1β
[5] = target: human CCR5 (no tag stated) (human) (UniProt P51681); assay: cell-based or functional assay
[6] = target: FLAG-tagged human CCR5 expressed on transfected L1.2 murine pre-B lymphoma cells (human) (UniProt P51681); assay: cell-based or functional assay
[7] = target: FLAG-tagged human CCR5 expressed on transfected L1.2 murine pre-B lymphoma cells (human) (UniProt P51681); assay: inhibition of 0.1 nM 125I-MIP-1α binding to CCR5 L1.2 transfectants by decreasing amounts of mAb; competitor MIP-1α
[8] = target: FLAG-tagged human CCR5 expressed on transfected L1.2 murine pre-B lymphoma cells (human) (UniProt P51681); assay: inhibition of 0.1 nM 125I-RANTES binding to CCR5 L1.2 transfectants by decreasing amounts of mAb; competitor RANTES

Substance: murine monoclonal antibody 2D7
- IC50 [1]: 0.01 µg/mL
- concentration giving complete inhibition of 125I-gp120 binding [1]: 50 ng/mL
- percent inhibition of 125I-RANTES binding [2]: 95%
- percent inhibition of 125I-MIP-1α binding [3]: 85%
- IC50 [4]: 0.041 µg/mL
- inhibition of RANTES and MIP-1α chemotactic responses by T cell lines [5]: 60 to 80%
- inhibition of chemotactic response of anti-CD3/IL-2 stimulated T cells to MIP-1α [5]: 60 to 80%
- mAb concentration sufficient for complete inhibition of migration of CCR5 L1.2 cells to all of the ligands [6]: 20 µg/mL
- IC50 [7]: 0.023 µg/mL
- IC50 [8]: 0.058 µg/mL
